From patent US20150023988A1 come the findings set out here.

Read-outs that look alike come from different tables or passages of the source. Where only a bound is given, the exact number is not on record here.

Holding throughout (assay): cell-based or functional assay
For test [1], the target named is human voltage-gated sodium channel Nav1.3 (human) (UniProt Q9NY46).
Test [2] deals with human voltage-gated sodium channel Nav1.4 (human) (UniProt P35499).
Test [3] addresses human voltage-gated sodium channel Nav1.5 (human) (UniProt Q14524).
The target in test [4] is human voltage-gated sodium channel Nav1.7 (human) (UniProt Q15858).
human voltage-gated sodium channel Nav1.7 (human), sequence (Q15858 whole entry): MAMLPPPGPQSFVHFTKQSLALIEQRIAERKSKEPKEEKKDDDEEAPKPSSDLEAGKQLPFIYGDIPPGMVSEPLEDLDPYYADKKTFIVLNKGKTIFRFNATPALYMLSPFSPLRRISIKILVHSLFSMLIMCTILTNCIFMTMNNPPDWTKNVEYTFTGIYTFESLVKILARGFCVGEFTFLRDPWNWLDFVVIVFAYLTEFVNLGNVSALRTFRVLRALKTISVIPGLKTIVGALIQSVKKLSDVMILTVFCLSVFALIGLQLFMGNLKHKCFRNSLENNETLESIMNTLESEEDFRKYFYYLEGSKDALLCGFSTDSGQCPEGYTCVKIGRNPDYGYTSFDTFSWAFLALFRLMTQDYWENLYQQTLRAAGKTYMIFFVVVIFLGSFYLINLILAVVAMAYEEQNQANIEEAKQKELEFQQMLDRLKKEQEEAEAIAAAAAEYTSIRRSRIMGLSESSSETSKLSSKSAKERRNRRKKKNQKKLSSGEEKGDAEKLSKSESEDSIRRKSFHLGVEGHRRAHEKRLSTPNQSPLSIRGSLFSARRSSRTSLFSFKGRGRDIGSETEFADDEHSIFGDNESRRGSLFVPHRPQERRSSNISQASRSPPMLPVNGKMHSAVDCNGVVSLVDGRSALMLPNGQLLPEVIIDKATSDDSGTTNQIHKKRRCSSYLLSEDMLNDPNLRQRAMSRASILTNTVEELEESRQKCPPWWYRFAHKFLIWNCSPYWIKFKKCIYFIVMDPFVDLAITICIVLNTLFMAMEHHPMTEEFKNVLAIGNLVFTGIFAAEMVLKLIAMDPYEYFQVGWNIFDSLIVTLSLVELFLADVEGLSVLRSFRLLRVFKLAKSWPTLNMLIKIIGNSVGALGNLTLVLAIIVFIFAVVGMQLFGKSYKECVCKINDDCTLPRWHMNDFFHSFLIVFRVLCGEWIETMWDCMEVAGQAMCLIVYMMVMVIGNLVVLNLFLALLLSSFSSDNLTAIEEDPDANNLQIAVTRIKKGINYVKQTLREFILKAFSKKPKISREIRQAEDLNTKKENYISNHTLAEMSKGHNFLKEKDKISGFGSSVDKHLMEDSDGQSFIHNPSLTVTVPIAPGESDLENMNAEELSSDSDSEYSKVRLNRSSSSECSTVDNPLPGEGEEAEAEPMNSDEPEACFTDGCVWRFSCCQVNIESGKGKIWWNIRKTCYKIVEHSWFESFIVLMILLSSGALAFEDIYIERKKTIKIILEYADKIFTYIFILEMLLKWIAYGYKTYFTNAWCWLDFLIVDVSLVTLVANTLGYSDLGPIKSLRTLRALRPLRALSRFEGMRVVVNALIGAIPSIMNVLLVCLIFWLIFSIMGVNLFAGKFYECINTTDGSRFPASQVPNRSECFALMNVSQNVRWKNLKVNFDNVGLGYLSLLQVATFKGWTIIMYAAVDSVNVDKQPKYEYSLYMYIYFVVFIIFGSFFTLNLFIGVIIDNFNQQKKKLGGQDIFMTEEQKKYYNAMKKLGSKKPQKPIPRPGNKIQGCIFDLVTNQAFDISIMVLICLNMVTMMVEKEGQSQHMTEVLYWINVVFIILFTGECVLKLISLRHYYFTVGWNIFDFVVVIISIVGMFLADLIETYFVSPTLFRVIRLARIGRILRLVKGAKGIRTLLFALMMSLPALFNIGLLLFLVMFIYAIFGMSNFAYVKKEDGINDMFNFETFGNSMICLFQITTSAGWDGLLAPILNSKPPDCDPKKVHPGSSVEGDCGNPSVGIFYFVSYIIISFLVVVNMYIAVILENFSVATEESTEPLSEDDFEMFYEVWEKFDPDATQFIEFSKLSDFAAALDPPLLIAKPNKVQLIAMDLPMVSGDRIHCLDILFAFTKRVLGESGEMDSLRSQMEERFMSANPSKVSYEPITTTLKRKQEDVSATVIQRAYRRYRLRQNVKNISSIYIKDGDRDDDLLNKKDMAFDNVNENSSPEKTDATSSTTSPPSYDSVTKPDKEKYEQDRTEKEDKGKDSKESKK
For test [5] the target is unchanged. This is another data set of the same source.
Test [6] addresses human voltage-gated sodium channel Nav1.4 (human) (UniProt P35499). The source holds these as a separate data set.
For test [7], the target named is human voltage-gated sodium channel Nav1.5 (human) (UniProt Q14524). This is another data set of the same source.

human voltage-gated sodium channel Nav1.4 (human), sequence (P35499 whole entry): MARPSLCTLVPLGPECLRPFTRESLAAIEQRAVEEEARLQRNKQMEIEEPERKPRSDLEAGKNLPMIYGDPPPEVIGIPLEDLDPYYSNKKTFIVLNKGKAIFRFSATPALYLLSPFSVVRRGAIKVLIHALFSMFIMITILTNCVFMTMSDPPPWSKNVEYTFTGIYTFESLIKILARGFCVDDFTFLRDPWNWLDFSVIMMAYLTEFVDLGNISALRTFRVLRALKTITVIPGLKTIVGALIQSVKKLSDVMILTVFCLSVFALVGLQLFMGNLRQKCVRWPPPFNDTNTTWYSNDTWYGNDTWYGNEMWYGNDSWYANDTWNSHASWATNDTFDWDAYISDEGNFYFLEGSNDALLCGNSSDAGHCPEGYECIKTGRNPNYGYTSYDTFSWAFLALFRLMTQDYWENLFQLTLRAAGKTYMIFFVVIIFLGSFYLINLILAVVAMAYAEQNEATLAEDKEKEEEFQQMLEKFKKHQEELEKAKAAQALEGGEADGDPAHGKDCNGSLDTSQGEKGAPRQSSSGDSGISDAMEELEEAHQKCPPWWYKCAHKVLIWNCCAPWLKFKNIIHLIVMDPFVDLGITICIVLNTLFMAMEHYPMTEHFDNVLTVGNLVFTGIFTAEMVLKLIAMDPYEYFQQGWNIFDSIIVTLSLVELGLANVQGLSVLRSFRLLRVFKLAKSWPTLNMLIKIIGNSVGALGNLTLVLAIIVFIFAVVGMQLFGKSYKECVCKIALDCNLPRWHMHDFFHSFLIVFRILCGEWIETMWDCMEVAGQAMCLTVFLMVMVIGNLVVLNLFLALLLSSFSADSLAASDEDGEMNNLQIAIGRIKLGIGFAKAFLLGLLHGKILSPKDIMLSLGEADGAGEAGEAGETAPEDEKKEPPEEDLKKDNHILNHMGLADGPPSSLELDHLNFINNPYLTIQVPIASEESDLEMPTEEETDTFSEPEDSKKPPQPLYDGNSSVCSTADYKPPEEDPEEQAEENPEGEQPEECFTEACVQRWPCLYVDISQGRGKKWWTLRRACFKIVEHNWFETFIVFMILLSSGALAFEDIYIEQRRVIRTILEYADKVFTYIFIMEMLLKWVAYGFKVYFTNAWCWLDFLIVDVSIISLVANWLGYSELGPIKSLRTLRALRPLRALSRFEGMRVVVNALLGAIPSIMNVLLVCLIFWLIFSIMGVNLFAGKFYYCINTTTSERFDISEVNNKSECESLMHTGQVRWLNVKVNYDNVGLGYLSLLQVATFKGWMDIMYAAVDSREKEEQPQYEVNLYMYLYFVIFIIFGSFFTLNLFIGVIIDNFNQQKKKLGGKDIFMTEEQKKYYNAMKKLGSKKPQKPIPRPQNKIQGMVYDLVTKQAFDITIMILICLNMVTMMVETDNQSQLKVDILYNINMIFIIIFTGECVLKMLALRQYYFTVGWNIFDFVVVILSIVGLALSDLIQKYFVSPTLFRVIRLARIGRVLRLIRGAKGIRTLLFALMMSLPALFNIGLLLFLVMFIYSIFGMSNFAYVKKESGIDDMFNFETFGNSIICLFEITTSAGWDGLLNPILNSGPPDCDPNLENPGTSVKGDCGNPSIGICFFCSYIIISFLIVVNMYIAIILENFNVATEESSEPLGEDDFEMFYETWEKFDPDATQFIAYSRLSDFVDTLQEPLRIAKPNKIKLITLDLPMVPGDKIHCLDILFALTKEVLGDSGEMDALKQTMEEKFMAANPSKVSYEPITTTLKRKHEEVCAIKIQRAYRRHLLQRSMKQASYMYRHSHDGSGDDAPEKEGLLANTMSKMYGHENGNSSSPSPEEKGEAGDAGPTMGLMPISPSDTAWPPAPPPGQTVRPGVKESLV

With “[Cit7;Glu20;Tyr28]JzTx-V(1-29) (peptide)”, the IC50 (IonWorks Quattro) in test [1] was > 7000 nM; in test [2], > 7000 nM; in test [3], > 7000 nM; in test [4], 5800 nM.

“[Nle6; AzK11; Glu20; Trp29]JzTx-V(1-29) (peptide)” had a PX hNav1.7 Tonic IC50 in test [5] of 435 nM.

In test [6], “[Nle6; Pra11; Glu20; Tyr28]JzTx-V(1-29) (peptide)” yielded a PX hNav1.4 Tonic IC50 of 825 nM. Besides, the PX hNav1.5 Tonic IC50 in test [7] came to 2460 nM. This substance came in with a PX hNav1.7 Tonic IC50 in test [5] of 1.28 nM.

The substance “[Nle6; Pra11; Glu20]JzTx-V(1-29) (peptide)” showed a PX hNav1.4 Tonic IC50 in test [6] of 4220 nM. The substance further gave a PX hNav1.5 Tonic IC50 in test [7] of 3550 nM. In addition, the PX hNav1.7 Tonic IC50 in test [5] is 18.4 nM.

In test [6], “[Nle6; Pra14; Glu20; Tyr28]JzTx-V(1-29) (peptide)” gave a PX hNav1.4 Tonic IC50 of 707 nM. The substance further had a PX hNav1.5 Tonic IC50 in test [7] of 3690 nM. In test [5], this substance displayed a PX hNav1.7 Tonic IC50 of 1.76 nM.

Regarding “[Nle6; Pra14; Glu20]JzTx-V(1-29) (peptide)”, the PX hNav1.4 Tonic IC50 in test [6] was found to be 1660 nM. Also, the PX hNav1.5 Tonic IC50 in test [7] worked out at 4570 nM. In test [5], this substance gave a PX hNav1.7 Tonic IC50 of 7.16 nM.

The substance “[Nle6;Pra11;Glu20;Trp29]JzTx-V(1-29) (peptide)” gave an IC50 (IonWorks Quattro) in test [5] of 26 nM.

In the case of “[Nva7;Glu20;Tyr28]JzTx-V(1-29) (peptide)”, the IC50 (IonWorks Quattro) in test [1] was > 7000 nM; in test [2] it was > 7000 nM; in test [3] it was > 7000 nM; in test [4] it was 4500 nM.
